{"source": "paper PMC12990809", "test_in_all_cases": "pulldown", "key": {"[1]": {"biological_target": "T1, CBG13971 (Caenorhabditis briggsae) (UniProt A8XIX4)", "T1 sequence": "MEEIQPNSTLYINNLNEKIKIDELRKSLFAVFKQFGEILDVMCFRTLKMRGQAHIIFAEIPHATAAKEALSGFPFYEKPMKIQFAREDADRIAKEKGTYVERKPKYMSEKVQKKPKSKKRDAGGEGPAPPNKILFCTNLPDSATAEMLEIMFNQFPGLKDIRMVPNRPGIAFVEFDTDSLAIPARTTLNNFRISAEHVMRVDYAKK", "conditions": "20 nM protein, 1.5 uM RNA pool; 20 mM HEPES pH 7.8, 70 mM KCl, 10 mM NaCl, 10% glycerol, 2 mM DTT, 0.1 ug/uL BSA; 30 min, 4 C"}, "[2]": {"biological_target": "T2, CBG14639 (Caenorhabditis briggsae) (UniProt A8XKC4)", "T2 sequence": "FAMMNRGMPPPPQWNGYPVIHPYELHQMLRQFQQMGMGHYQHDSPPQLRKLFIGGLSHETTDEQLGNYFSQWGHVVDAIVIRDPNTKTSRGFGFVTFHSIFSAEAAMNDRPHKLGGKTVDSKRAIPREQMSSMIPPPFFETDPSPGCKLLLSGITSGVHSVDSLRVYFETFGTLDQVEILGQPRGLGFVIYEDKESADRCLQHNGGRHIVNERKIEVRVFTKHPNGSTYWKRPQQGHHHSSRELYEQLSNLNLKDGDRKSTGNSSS", "conditions": "20 nM protein, 1.5 uM RNA pool; 20 mM HEPES pH 7.8, 70 mM KCl, 10 mM NaCl, 10% glycerol, 2 mM DTT, 0.1 ug/uL BSA; 30 min, 4 C"}, "A1CF (Gallus gallus)": {"biological_target": "T3, A1CF (Gallus gallus) (UniProt A0A8V0ZPX5)", "T3 sequence": "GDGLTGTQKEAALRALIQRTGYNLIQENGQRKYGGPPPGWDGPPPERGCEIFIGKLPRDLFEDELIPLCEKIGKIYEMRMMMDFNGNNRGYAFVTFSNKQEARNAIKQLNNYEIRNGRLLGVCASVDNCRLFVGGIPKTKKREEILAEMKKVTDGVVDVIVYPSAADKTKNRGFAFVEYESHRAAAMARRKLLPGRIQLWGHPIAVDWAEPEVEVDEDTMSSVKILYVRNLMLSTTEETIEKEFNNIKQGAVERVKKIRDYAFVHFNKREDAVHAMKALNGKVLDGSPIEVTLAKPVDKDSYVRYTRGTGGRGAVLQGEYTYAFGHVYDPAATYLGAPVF", "conditions": "20 nM protein, 1.5 uM RNA pool; 20 mM HEPES pH 7.8, 70 mM KCl, 10 mM NaCl, 10% glycerol, 2 mM DTT, 0.1 ug/uL BSA; 30 min, 4 C (protocol of this paper; not …); cited from earlier work"}, "[3]": {"biological_target": "T4, rnp-2 (Caenorhabditis elegans) (UniProt Q21322)", "T4 sequence": "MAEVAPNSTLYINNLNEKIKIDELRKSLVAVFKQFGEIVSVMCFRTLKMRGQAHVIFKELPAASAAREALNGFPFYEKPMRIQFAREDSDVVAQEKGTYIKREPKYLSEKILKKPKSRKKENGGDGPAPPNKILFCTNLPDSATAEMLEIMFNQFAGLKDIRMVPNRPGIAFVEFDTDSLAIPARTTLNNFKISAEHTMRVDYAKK", "conditions": "20 nM protein, 1.5 uM RNA pool; 20 mM HEPES pH 7.8, 70 mM KCl, 10 mM NaCl, 10% glycerol, 2 mM DTT, 0.1 ug/uL BSA; 30 min, 4 C"}, "[4]": {"biological_target": "T5, AT1G76460 (Arabidopsis thaliana) (UniProt F4I2E4)", "T5 sequence": "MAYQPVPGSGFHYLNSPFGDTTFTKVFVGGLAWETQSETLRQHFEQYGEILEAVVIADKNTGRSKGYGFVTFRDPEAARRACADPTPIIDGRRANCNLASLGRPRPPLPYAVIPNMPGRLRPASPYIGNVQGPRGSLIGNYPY", "conditions": "20 nM protein, 1.5 uM RNA pool; 20 mM HEPES pH 7.8, 70 mM KCl, 10 mM NaCl, 10% glycerol, 2 mM DTT, 0.1 ug/uL BSA; 30 min, 4 C (protocol of this paper; not …); cited from earlier work"}, "[5]": {"biological_target": "T6, Y69A2AR.32 L314S (Caenorhabditis elegans) (UniProt H2L0S1)", "T6 sequence": "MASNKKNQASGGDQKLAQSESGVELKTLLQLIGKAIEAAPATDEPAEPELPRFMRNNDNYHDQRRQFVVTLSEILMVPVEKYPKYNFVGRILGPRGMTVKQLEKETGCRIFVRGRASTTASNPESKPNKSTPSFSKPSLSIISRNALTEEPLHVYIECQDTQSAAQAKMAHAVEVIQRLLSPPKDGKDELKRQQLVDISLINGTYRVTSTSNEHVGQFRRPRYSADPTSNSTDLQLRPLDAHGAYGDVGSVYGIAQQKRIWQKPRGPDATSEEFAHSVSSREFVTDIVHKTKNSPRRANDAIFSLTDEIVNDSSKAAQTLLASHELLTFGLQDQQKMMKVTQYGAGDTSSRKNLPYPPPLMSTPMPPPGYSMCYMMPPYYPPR", "conditions": "20 nM protein, 1.5 uM RNA pool; 20 mM HEPES pH 7.8, 70 mM KCl, 10 mM NaCl, 10% glycerol, 2 mM DTT, 0.1 ug/uL BSA; 30 min, 4 C"}, "rbm38 (Danio rerio)": {"biological_target": "T7, rbm38 (Danio rerio) (UniProt A0A8M1NF18)", "T7 sequence": "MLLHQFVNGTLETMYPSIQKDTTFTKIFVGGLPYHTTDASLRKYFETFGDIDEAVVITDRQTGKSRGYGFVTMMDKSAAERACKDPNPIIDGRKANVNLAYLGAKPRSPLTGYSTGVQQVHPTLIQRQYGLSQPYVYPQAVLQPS", "conditions": "20 nM protein, 1.5 uM RNA pool; 20 mM HEPES pH 7.8, 70 mM KCl, 10 mM NaCl, 10% glycerol, 2 mM DTT, 0.1 ug/uL BSA; 30 min, 4 C (protocol of this paper; not …); cited from earlier work"}, "HNRNPR (Gallus gallus)": {"biological_target": "T8, HNRNPR (Gallus gallus) (UniProt A0A8V0YGA1)", "T8 sequence": "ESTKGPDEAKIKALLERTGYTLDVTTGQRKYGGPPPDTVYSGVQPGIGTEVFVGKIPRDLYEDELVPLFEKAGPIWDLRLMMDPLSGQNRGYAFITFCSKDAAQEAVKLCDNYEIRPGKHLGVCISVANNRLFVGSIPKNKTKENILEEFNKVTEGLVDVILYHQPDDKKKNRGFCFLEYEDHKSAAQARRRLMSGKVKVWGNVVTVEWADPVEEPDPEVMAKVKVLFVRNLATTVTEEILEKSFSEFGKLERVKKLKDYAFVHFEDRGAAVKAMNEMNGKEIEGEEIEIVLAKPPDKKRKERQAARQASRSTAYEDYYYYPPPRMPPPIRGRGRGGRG", "conditions": "20 nM protein, 1.5 uM RNA pool; 20 mM HEPES pH 7.8, 70 mM KCl, 10 mM NaCl, 10% glycerol, 2 mM DTT, 0.1 ug/uL BSA; 30 min, 4 C (protocol of this paper; not …); cited from earlier work"}, "[6]": {"biological_target": "T9, PK22404.1 A169L;A170F;T171A;T450P (Cannabis sativa) (UniProt A0A803PFA7)", "T9 sequence": "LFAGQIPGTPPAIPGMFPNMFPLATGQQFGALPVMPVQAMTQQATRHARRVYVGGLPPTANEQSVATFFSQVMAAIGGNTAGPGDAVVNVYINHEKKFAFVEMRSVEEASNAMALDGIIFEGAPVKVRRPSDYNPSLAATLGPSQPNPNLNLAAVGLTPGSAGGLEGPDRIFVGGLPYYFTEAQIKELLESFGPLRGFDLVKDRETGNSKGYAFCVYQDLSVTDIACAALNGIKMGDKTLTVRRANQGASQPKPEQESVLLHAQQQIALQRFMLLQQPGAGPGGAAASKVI", "conditions": "20 nM protein, 1.5 uM RNA pool; 20 mM HEPES pH 7.8, 70 mM KCl, 10 mM NaCl, 10% glycerol, 2 mM DTT, 0.1 ug/uL BSA; 30 min, 4 C"}, "[7]": {"biological_target": "T10, csx1 (Schizosaccharomyces pombe) (UniProt O13759)", "T10 sequence": "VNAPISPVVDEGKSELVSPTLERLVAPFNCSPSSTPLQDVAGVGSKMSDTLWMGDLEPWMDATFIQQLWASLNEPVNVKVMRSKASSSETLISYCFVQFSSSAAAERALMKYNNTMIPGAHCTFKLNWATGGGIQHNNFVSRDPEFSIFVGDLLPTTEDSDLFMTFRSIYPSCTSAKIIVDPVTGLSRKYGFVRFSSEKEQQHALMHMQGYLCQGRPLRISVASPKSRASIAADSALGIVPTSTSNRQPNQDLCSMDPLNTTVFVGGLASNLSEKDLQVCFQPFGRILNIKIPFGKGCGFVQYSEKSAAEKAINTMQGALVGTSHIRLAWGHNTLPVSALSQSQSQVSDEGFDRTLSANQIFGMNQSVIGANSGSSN", "conditions": "20 nM protein, 1.5 uM RNA pool; 20 mM HEPES pH 7.8, 70 mM KCl, 10 mM NaCl, 10% glycerol, 2 mM DTT, 0.1 ug/uL BSA; 30 min, 4 C"}}, "data": [{"substance": "GCACUU [RNAcompete motif RNCMPT00323]", "values": [{"measurement": "binding signal (z-score (mean of top ten 7-mers))", "setting": "[1]", "value": 11.2}]}, {"substance": "AUUAGG [RNAcompete motif RNCMPT00331]", "values": [{"measurement": "binding signal (z-score (mean of top ten 7-mers))", "setting": "[2]", "value": 8.86}]}, {"substance": "UAAUUG [RNAcompete motif RNCMPT00291]", "values": [{"measurement": "binding signal (z-score (mean of top ten 7-mers))", "setting": "A1CF (Gallus gallus)", "value": 12}]}, {"substance": "GCACUU [RNAcompete motif RNCMPT00301]", "values": [{"measurement": "binding signal (z-score (mean of top ten 7-mers))", "setting": "[3]", "value": 27}]}, {"substance": "AGUGUGA [RNAcompete motif RNCMPT00284]", "values": [{"measurement": "binding signal (z-score (mean of top ten 7-mers))", "setting": "[4]", "value": 8.11}]}, {"substance": "UACUNG [RNAcompete motif RNCMPT00324]", "values": [{"measurement": "binding signal (z-score (mean of top ten 7-mers))", "setting": "[5]", "value": 22.8}]}, {"substance": "GUGUGUG [RNAcompete motif RNCMPT00283]", "values": [{"measurement": "binding signal (z-score (mean of top ten 7-mers))", "setting": "rbm38 (Danio rerio)", "value": 9.92}]}, {"substance": "AAAUU [RNAcompete motif RNCMPT00288]", "values": [{"measurement": "binding signal (z-score (mean of top ten 7-mers))", "setting": "HNRNPR (Gallus gallus)", "value": 6.51}]}, {"substance": "UUUUUUG [RNAcompete motif RNCMPT00343]", "values": [{"measurement": "binding signal (z-score (mean of top ten 7-mers))", "setting": "[6]", "value": 13.5}]}, {"substance": "UGUUUU [RNAcompete motif RNCMPT00325]", "values": [{"measurement": "binding signal (z-score (mean of top ten 7-mers))", "setting": "[7]", "value": 9.34}]}]}
